Experimental data taken from the Human Domainome abundance scans (Beltran et al. 2025).

B1: Segment polarity protein dishevelled homolog DVL-3, residues 2 to 81; numbered along this chain, Q92997 (parent)
chain: GETKIIYHLDGQETPYLVKLPLPAERVTLADFKGVLQRPSYKFFFKSMDDDFGVVKEEISDDNAKLPCFNGRVVSWLVSA

Variants of: B1
Assay: abundance fitness (aPCA) (normalised: wild type 0, dead -1); higher = more abundant; growth selection in yeast, the domain comes from the species named
Conditions: Homo sapiens

Abundance fitness: each site, then its substitutions
F45: K -0.934 | E -0.379 | P -0.581 | D -0.775 | C -0.569 | A -0.533 | V -0.755 | N -0.407 | S -0.856 | R -0.669 | I -0.969 | H -0.864 | W -0.605 | T -0.596 | L -0.775 | Q -0.669 | M -0.868
Q37: Y -0.1 | W -0.483
E57: G -0.623 | D -0.904 | H -0.109 | K 0.502 | C -0.09 | A -0.121
S40: Q 0.004 | A -0.024 | Y 0.121 | V 0.134 | W -0.1 | P -0.261 | L -0.258 | D 0.282 | M 0.098 | R -0.254 | C 0.045 | F -0.157 | N 0.167 | E 0.003 | K -0.091 | G 0.116
D50: E -0.184 | K 0.131 | S 0.089 | T -0.074 | N -0.079 | P -0.016 | W -0.445 | Y -0.287 | I -0.421 | G 0.069 | F -0.645 | L -0.475 | H -0.188 | M -0.329 | C -0.263 | Q -0.041 | A -0.15
G53: A 0.096 | H 0.358 | T 0.092 | F -0.362 | N 0.563 | L -0.321 | P -0.211 | K 0.482 | C 0.2 | E 0.209 | M -0.032 | Y 0.223 | V -0.005 | S 0.153 | I -0.501 | W -0.458 | R 0.382 | Q 0.327
P39: Y -0.494 | W -0.466 | T 0.062 | S 0.051 | G 0.062 | E 0 | M 0.006 | K 0.194 | Q 0.11 | R -0.037 | D 0.357 | C -0.306 | N 0.061 | V -0.106 | I -0.066 | A -0.14 | H 0.073
R38: W -0.099 | V -0.024 | I -0.181 | K 0.147 | P -0.341 | S 0.159 | A 0.009 | Y -0.188 | C 0.139 | T 0.187 | N 0.255 | G -0.076 | H 0.001 | M 0.032 | D 0.284 | L -0.114 | F -0.142 | E 0.13 | Q -0.069
F43: A -0.552 | T -0.695 | M -0.291 | C -0.391 | D -0.64 | Q -0.909 | G -0.753 | P -1.12 | L -0.693 | K -0.644 | W -0.58 | V -0.658 | N -0.565 | H -0.799 | I -0.611
K46: L -0.138 | W -0.227 | E 0.277 | G -0.223 | P -0.437 | T -0.392 | V -0.407 | I -0.189 | M -0.081 | D -0.061 | Y -0.401 | F -0.488 | R -0.08 | Q 0.165 | N -0.046 | C -0.068 | H -0.132 | S -0.196
F52: T 0.183 | Y -0.063 | Q 0.268 | M 0.156 | L 0.249 | R 0.618 | G 0.781 | H 0.32 | S 0.37 | A 0.263 | K 0.604 | C 0.351 | V 0.048 | E 0.335 | I 0.036
Y41: G -0.496 | E -0.486 | A -0.431 | T -0.511 | V -0.388 | C -0.227 | K -0.787 | N -0.727 | Q -0.403 | H -0.304 | W -0.331 | L -0.624 | S -0.72 | R -0.741 | D -0.673 | P -0.538
D49: W -0.461 | I -0.231 | N 0.296 | H 0.136 | L -0.564 | Q -0.053 | C 0.013 | V -0.364 | T 0.111 | G -0.046 | K 0.203 | S 0.234 | A 0.018 | F -0.488 | E -0.038 | M -0.402
V55: A -0.212 | G -0.335 | C 0.198 | L -0.21 | E -0.104 | K 0.199 | I 0.151 | M -0.024 | T 0.195 | R 0.225 | D -0.259 | S -0.148 | P -0.895 | W -0.189 | Y 0.2 | Q 0.106 | H 0.365 | F 0.204
M48: N 0.567 | T 0.296 | W 0.017 | S 0.283 | F -0.121 | A 0.287 | C 0.133 | R 0.204 | E 0.09 | G 0.316 | V 0.125 | H 0.056 | Y 0.175 | Q 0.089 | K 0.039 | L -0.074 | I -0.13
K56: I 0.03 | G -0.63 | H -0.216 | T 0.162 | N -0.678 | D -0.738 | E -0.431 | F -0.009 | W 0.282 | V 0.102 | C 0.103 | S -0.52 | Q -0.285 | P -0.496 | A -0.32 | L -0.094 | R 0.041 | Y 0.592
S47: P -0.675 | F 0.011 | N 0.092 | W -0.519 | V 0.269 | K 0.324 | E -0.726 | L 0.024 | Q -0.212 | A -0.051 | M 0.415 | H -0.207 | D -0.658 | T 0.325 | I 0.336 | R 0.34 | C 0.251 | G -0.336
V54: Y -0.088 | D 0.168 | W 0.13 | I 0.175 | G -0.127 | F 0.136 | R -0.556 | C 0.01 | T -0.178 | E 0.192 | P 0.069 | K -0.657 | H 0.002 | N -0.005 | L -0.083 | A 0.005 | Q -0.241 | M -0.188 | S -0.082
K42: E -0.636 | R 0.158 | Y -0.957 | Q -0.044 | T -0.356 | M -0.659 | F 0.052 | C -0.624 | A -0.602 | L -0.86 | D -0.953 | S -0.716 | W -0.783 | P -0.763 | H -0.043 | N -0.421 | V -0.841
F44: D -0.749 | W -0.244 | P -0.685 | E -0.683 | G -0.754 | V -0.756 | C -0.689 | A -0.614 | Q -0.745 | N -0.653 | Y -0.015 | H -0.807 | K -0.818 | I -0.624 | L -0.351 | R -0.753
D51: R 0.224 | W -0.824 | M -0.279 | V -0.113 | P 0.057 | I -0.202 | C -0.191 | S 0.072 | Q 0.158 | F -0.198 | N 0.25 | E -0.074 | Y -0.224 | A 0.022 | L -0.32 | G -0.004 | K 0.197 | T 0.166 | H 0.058
